Measurements published in paper PMC9361535.
Values belong to the substance of their own block, whether it stands above or below them.

Legend:
Test in all cases: GFP-Trap pulldown, quantitative mass spectrometry (iBAQ)
[1] = target: HSPA6/7; settings: cytoplasmic fraction of HeLa cells; read off a plot
[2] = target: CBS; settings: cytoplasmic fraction of HeLa cells; read off a plot
[3] = target: MSRB3; settings: cytoplasmic fraction of HeLa cells; read off a plot
[4] = target: PHLDA2; settings: cytoplasmic fraction of HeLa cells; read off a plot
[5] = target: ASH2L (UniProt Q9UBL3); settings: nuclear extracts of HeLa cells; read off a plot
[6] = target: DPY30 (UniProt Q9C005); settings: nuclear extracts of HeLa cells; read off a plot
[7] = target: HCFC2 (UniProt Q9Y5Z7); settings: nuclear extracts of HeLa cells; read off a plot
Sequence of HCFC2 (Q9Y5Z7 whole entry): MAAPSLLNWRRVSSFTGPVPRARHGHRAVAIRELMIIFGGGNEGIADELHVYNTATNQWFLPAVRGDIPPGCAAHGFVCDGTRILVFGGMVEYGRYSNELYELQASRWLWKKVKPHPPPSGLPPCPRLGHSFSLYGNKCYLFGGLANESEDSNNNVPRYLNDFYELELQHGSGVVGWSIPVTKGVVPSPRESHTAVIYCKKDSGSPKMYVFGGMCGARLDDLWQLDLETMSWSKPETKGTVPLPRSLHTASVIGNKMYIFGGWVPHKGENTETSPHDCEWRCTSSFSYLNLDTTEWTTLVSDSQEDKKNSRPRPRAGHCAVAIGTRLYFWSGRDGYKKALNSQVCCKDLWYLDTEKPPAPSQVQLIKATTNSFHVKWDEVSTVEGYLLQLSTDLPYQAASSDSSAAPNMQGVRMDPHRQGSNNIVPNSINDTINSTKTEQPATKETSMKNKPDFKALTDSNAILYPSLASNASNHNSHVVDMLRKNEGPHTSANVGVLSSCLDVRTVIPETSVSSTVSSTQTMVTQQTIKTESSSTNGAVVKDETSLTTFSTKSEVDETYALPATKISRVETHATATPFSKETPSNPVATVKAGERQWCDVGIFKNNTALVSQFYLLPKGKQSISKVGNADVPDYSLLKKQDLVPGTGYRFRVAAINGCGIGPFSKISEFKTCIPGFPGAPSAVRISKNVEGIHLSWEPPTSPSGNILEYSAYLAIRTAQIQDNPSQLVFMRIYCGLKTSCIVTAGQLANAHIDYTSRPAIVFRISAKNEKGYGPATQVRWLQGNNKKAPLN

[8] = target: HSPA8 (UniProt P11142); settings: cytoplasmic fraction of HeLa cells; read off a plot
[9] = target: JunD (UniProt P17535); settings: nuclear extracts of HeLa cells, read off a plot
Sequence of JunD (P17535 whole entry): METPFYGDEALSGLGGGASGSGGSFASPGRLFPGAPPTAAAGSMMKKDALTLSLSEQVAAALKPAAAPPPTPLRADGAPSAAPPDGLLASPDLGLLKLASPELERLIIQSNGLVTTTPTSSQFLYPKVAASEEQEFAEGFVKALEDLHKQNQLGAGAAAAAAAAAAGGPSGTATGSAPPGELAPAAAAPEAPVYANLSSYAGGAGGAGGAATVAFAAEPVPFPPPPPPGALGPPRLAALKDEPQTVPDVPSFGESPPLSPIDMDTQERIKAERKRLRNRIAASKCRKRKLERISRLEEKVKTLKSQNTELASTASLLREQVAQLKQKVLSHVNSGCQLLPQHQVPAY

[10] = target: KMT2A (UniProt Q03164); settings: nuclear extracts of HeLa cells, read off a plot
Sequence of KMT2A (Q03164 whole entry): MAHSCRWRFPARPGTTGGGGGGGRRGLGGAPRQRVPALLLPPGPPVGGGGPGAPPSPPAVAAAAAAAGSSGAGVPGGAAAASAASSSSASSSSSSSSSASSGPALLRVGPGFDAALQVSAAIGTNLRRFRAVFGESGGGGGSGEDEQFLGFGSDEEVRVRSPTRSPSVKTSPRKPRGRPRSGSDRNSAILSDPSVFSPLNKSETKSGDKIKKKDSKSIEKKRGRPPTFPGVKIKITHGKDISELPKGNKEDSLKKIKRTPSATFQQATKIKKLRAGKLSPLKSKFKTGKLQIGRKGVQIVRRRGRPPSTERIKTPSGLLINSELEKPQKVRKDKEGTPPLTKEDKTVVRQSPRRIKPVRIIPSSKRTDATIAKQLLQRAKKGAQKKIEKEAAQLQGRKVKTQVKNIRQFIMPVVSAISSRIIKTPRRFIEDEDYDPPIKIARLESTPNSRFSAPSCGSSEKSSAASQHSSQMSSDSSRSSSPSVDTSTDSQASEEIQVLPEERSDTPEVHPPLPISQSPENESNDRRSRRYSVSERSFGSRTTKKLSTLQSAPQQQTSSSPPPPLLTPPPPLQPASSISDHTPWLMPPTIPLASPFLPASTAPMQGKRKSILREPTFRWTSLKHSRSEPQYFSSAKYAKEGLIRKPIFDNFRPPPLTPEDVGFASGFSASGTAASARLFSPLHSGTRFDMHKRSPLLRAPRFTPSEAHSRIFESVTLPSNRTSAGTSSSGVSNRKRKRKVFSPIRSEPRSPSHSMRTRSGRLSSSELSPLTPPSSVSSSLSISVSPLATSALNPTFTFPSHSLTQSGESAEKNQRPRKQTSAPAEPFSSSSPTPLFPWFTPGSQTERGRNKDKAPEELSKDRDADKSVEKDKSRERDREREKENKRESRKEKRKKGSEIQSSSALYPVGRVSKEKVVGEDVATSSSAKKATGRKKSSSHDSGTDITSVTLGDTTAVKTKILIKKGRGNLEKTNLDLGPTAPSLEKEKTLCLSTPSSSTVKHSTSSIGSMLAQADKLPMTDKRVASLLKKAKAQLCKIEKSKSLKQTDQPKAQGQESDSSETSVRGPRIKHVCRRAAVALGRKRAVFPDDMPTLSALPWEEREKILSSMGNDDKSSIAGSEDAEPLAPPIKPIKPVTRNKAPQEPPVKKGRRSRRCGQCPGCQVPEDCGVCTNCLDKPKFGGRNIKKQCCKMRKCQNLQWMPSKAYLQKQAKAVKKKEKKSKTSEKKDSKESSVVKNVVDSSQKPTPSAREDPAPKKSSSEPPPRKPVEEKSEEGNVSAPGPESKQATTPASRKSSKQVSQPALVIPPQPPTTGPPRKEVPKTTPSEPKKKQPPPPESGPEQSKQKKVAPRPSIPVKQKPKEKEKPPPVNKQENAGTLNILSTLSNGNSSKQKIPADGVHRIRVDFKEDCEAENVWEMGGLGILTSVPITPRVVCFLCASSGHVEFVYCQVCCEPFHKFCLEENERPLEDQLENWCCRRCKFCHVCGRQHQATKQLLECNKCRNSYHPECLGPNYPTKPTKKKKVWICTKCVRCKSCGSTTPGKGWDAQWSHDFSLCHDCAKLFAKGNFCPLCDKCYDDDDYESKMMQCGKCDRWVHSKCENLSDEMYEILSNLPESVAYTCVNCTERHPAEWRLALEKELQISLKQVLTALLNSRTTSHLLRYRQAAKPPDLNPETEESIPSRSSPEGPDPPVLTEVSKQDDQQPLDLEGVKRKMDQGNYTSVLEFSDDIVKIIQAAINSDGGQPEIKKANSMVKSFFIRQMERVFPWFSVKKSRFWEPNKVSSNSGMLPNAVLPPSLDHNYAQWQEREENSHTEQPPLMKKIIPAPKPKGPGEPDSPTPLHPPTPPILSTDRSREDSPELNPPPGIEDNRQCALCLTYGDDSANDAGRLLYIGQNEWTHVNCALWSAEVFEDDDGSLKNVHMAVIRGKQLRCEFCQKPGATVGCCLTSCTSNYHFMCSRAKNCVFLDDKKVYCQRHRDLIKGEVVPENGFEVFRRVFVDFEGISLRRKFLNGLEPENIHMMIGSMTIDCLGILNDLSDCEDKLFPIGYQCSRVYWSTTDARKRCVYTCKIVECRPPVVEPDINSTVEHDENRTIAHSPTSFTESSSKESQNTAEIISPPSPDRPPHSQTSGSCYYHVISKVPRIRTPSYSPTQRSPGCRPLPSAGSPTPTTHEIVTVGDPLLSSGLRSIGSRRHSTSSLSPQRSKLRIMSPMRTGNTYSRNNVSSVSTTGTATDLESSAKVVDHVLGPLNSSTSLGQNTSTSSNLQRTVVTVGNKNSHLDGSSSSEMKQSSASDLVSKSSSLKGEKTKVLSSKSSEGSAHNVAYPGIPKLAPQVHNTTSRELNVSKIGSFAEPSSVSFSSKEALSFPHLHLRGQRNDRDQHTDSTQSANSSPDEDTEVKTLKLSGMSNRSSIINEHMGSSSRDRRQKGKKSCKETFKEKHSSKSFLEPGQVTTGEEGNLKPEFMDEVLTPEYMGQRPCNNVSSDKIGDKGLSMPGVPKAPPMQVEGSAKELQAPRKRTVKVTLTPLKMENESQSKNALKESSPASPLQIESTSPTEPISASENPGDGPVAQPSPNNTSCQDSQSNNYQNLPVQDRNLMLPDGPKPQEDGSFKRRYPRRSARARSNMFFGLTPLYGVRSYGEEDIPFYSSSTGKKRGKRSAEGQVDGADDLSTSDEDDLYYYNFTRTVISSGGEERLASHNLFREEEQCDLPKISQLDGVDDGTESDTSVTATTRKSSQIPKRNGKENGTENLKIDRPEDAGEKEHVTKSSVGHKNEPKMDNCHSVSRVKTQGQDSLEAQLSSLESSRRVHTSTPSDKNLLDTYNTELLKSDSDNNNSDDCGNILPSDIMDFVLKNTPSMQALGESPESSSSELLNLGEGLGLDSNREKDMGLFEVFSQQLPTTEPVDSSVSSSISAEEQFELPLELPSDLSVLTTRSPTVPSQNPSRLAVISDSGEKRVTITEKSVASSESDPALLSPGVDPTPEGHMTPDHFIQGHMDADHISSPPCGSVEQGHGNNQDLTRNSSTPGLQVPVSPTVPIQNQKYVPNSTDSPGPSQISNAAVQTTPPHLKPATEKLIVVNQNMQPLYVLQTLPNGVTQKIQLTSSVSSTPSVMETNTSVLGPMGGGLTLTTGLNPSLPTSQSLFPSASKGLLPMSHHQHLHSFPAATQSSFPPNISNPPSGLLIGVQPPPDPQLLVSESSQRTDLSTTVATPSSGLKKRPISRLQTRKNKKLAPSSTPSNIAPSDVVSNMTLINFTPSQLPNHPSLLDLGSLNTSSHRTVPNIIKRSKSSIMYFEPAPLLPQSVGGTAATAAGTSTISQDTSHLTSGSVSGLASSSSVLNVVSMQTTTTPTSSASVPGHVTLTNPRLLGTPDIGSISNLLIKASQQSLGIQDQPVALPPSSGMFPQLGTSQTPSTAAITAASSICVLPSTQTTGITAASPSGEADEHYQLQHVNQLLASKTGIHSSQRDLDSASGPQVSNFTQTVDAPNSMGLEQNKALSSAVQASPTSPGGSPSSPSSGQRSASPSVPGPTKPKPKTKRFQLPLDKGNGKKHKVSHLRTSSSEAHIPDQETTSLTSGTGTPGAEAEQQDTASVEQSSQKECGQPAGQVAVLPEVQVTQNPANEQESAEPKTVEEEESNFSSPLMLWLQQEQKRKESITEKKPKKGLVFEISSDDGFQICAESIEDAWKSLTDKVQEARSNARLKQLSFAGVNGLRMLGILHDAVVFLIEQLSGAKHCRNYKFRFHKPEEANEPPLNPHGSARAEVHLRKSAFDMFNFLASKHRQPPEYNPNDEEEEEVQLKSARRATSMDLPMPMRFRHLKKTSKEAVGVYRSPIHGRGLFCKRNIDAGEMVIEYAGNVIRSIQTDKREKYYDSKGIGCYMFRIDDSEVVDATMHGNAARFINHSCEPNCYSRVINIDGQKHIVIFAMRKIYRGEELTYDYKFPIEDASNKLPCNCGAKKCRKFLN

[11] = target: KMT2B (UniProt Q9UMN6); settings: nuclear extracts of HeLa cells; read off a plot
[12] = target: PSIP1 (UniProt O75475); settings: nuclear extracts of HeLa cells; read off a plot
[13] = target: RBBP5 (UniProt Q15291); settings: nuclear extracts of HeLa cells; read off a plot
[14] = target: WDR5 (UniProt P61964); settings: nuclear extracts of HeLa cells; read off a plot
[15] = target: ubiquitin (UniProt P62979); settings: cytoplasmic fraction of HeLa cells; read off a plot
[16] = target: DNAJA1; settings: cytoplasmic fraction of HeLa cells; read off a plot
[17] = target: SPRYD3; settings: cytoplasmic fraction of HeLa cells; read off a plot

Substance: WT menin-GFP (from UniProt O00255-2) L264P
- other: stoichiometry [1]: 0.11

Substance: WT menin-GFP (from UniProt O00255-2) E359K
- other: stoichiometry [3]: 0.22

Substance: WT menin-GFP (from UniProt O00255-2) R322H
- other: stoichiometry [5]: 0.06
- other: stoichiometry [6]: 0.23
- other: stoichiometry [7]: 0.014
- other: stoichiometry [8]: 0.26
- ratio to parent ([9]; parent: est. 1.0): 0.53
- other: stoichiometry [9]: 0.053
- ratio to parent ([10]; parent: est. 1.0): 0.8
- other: stoichiometry [10]: 0.028
- other: stoichiometry [11]: 0.068
- other: stoichiometry [3]: 0.045
- other: stoichiometry [4]: 0.045
- other: stoichiometry [12]: 0.014
- other: stoichiometry [13]: 0.076
- other: stoichiometry [14]: 0.046
- other: stoichiometry [15]: 0.35

Substance: WT menin-GFP (from UniProt O00255-2) R52G
- other: stoichiometry [3]: 0.05
- other: stoichiometry [4]: 0.09

Substance: WT menin-GFP (from UniProt O00255-2) Q141R
- other: stoichiometry [1]: 0.04
- other: stoichiometry [3]: 0.055

Second part, the substance after the results:

- other: stoichiometry [2]: 0.055
- other: stoichiometry [3]: 0.095
- other: stoichiometry [4]: 0.12
Substance: WT menin-GFP (from UniProt O00255-2) E408Q

- other: stoichiometry [3]: 0.055
- other: stoichiometry [4]: 0.06
Substance: WT menin-GFP (from UniProt O00255-2) E366D

- other: stoichiometry [16]: 0.045
- other: stoichiometry [1]: 0.075
- other: stoichiometry [17]: 0.04
Substance: WT menin-GFP (from UniProt O00255-2) L168P
